Measurements from patent US20210301026A1 (ULTRAHUMAN TWELVE, published 2021).
Like-named read-outs stand apart in the source and are kept apart here.

Tests used:
[1] = molecular target: T1, monomeric human CSF1R ectodomain protein (human, UniProt P07333 20-517); assay: SPR Biacore, IgG captured, monomeric CSF1R analyte
T1 construct: also called biotinylated monomeric human CSF1R
Procedure: (§1) Affinity (KD) of purified IgGs was determined via SPR with antigen in-solution on a Biacore 3000 (GE). A mouse anti-human antibody (CH1 specific) was immobilized on a CM5 Sensor Chip to a level of 2000 RU in acetate buffer at pH 4.5 using amine coupling following the Wizard instructions for two channels. One channel was used for background signal correction. The standard running buffer HBS-EP pH 7.4 was used. Regeneration was performed with a single injection of 10 μl of 10 mM Glycine at pH 1.5 at 20 μl/minute. IgG samples were injected for 2 minutes at 50 nM at 30 μl/min followed by and off-rate of 60 seconds. The monomeric ectodomain protein (human CSF1R or cynomolgus monkey CSF1R) was injected in two fold serial dilutions from 100 nM down to 3.1 nM, for 2 minutes at 30 μl/min followed by an off-rate of 300 seconds. The obtained sensorgrams were analysed using the Biacore 3000 evaluation (BIAevaluation) software. The KD was calculated by simultaneous fitting of the association and dissociation phases to a 1:1 Langmuir binding model.
(§2) Biacore analyses of binding affinity were performed for all IgGs to solution-phase, monomeric human and cyno CSF1R proteins (Table 6). […] Affinity differentials of less than 3-fold between human and cyno target orthologs are highly beneficial in pre-clinical drug development analyses as they allow more accurate design and interpretation of e.g. monkey safety, PK and PD modelling experiments.

[2] = molecular target: T2, monomeric cynomolgus monkey CSF1R ectodomain protein (cynomolgus monkey, UniProt P07333 20-517 (human entry)); assay: SPR Biacore, IgG captured, monomeric CSF1R analyte
T2 construct: also called monomeric cyno CSF1R; Cyno CSF1R
T2 chain: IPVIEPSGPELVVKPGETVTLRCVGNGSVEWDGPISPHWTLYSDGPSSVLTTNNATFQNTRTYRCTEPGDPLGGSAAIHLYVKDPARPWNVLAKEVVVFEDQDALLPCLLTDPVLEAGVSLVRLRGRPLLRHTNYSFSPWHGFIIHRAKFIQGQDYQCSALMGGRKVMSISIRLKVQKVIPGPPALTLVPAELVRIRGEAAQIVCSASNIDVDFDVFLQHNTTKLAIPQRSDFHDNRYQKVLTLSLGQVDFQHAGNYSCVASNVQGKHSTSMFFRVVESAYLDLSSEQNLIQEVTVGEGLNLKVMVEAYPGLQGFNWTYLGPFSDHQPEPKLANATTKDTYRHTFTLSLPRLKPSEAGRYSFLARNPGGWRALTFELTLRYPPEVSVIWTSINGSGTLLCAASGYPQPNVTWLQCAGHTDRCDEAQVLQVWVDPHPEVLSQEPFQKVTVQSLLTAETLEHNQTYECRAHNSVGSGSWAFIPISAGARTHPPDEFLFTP
Procedure: as §1, §2

[3] = molecular target: T1, monomeric human CSF1R ectodomain protein; assay: SPR Biacore, IgG captured, monomeric CSF1R analyte; remark: listed apart in the source
Procedure: as §1

[4] = molecular target: T2, monomeric cynomolgus monkey CSF1R …; assay: SPR Biacore, IgG captured, monomeric CSF1R analyte
Procedure: as §1

[5] = molecular target: T1, monomeric human CSF1R ectodomain protein; assay: AlphaScreen competition with mu0301 IgG4(S228P) for biotinylated monomeric human CSF1R
Procedure: The AlphaScreen assay (Perkin Elmer) was performed in a 25 μl final volume in 384-well white microtiter plates (Greiner). The reaction buffer contained 1×PBS pH 7.3 (Oxoid, Cat. nr. BR0014G) and 0.05% (v/v) Tween® 20 (Sigma, Cat. nr. P9416). Purified IgG samples were titrated in three fold serial dilutions starting at 500 nM final concentration and incubated with biotinylated human CSF1R for 20 minutes at room temperature. […] The emission of light was measured in the EnVision multilabel plate reader (Perkin Elmer) and analysed using the EnVision manager software. Values were reported as Counts Per Second (CPS) and corrected for crosstalk. The EC50 values were calculated using the […] in GraphPad Prism software (GraphPad Software, La Jolla, Calif.).

[6] = molecular target: T3, cynomolgus monkey CSF1R human Fc tagged recombinant protein (cynomolgus monkey, UniProt P07333 20-517 (human entry), limits assumed); assay: direct titration ELISA on coated cyno CSF1R-Fc, IgG4(S228P) format, OD 450 nm
T3 construct: also called cyno CSF1R-Fc
T3 chain: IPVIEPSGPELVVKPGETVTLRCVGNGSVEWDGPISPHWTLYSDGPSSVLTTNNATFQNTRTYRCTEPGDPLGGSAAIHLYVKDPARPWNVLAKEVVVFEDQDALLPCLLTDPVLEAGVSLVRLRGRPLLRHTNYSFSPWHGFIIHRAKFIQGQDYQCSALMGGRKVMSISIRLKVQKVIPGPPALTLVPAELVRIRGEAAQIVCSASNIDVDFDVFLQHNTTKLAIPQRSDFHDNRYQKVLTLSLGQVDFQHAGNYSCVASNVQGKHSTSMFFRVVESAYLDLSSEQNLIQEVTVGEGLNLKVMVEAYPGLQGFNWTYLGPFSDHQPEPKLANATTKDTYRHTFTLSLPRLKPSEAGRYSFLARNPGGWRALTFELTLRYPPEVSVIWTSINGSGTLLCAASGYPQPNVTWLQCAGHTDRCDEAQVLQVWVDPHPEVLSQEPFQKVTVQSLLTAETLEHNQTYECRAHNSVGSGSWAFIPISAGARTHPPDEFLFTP
Procedure: (§3) Binding and cross-reactivity of the lead panel to the recombinant proteins was initially assessed by binding ELISA. The human CSF1R human Fc tagged recombinant protein and the cynomolgus monkey CSF1R human Fc tagged recombinant protein were coated to the surface of MaxiSorp™ flat-bottom 96 well plate at 1 μg/ml. The purified IgG samples were titrated in two fold serial dilutions starting from 500 nM to 0.008 nM and allowed to bind to the coated antigens. The Fabs were detected using mouse anti-c-myc antibody followed by donkey anti-mouse IgG conjugated to horseradish peroxidase. The IgGs were detected using the mouse anti-human IgG conjugated to horseradish peroxidase. Binding signals were visualized with 3,3′,5,5′-Tetramethylbenzidine Substrate Solution (TMB) and the absorbance measured at 450 nm.

[7] = molecular target: T4, human CSF1R human Fc tagged recombinant protein (human, UniProt P07333 20-517); assay: direct titration ELISA on coated human CSF1R-Fc, IgG4(S228P) format, OD 450 nm
T4 construct: also called human CSF1R-Fc
Procedure: as §3

human insulin = molecular target: T5, human insulin (human, UniProt P01308 25-54; P01308 90-110, limits assumed); assay: ELISA on human insulin (development risk, polyreactivity), binding score
T5 construct: Coated antigen of the polyreactivity ('PK-risk indicator') ELISA
T5 sequence (P01308 25-54 limits assumed, chain 1 of 2): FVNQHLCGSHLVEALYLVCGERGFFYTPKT
T5 sequence (P01308 90-110 limits assumed, chain 2 of 2): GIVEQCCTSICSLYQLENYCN

[8] = molecular target: T3, cynomolgus monkey CSF1R human Fc tagged …; assay: direct titration ELISA on coated cyno CSF1R-Fc, IgG4(S228P) format, OD 450 nm
Procedure: as §3

[9] = molecular target: T4, human CSF1R human Fc tagged recombinant …; assay: direct titration ELISA on coated human CSF1R-Fc, IgG4(S228P) format, OD 450 nm; remark: listed apart in the source
Procedure: as §3

B1: MH5 (antibody, human IgG4, V domains shown)
VH: QVQLVQSGAEVKKPGSSVKVSCKASGYTFSSYYMIWVRQAPGQGLEWMGDINPYNGGANYAQKFQGRVTITADESTSTAYMELSSLRSEDTAVYYCAREGPYFSNLYVMDYWGQGTLVTVSS
VL: EIVLTQSPATLSLSPGERATLSCRASQSVSYEGENYLNWYQQKPGQAPRLLIYAASNRATGIPARFSGSGSGTDFTLTISSPEPEDFAVYYCQLSNEDLLTFGGGTKVEIK
notes: Designer (maximally humanized) clone; tested as human IgG4(S228P)/Ckappa IgG; also called mAb-2
Q: With B1 as the binder, how does the Kd [1] read?
A: 220 pM

Q: What about the koff [1] of the same binder?
A: 0.00036 s⁻¹

Q: And the kon [1]?
A: 1.7e+06 M⁻¹ s⁻¹

Q: What about the Kd [2] of the same binder?
A: 620 pM

Q: What about the koff [2] of the same binder?
A: 0.00031 s⁻¹

Q: And the kon [2]?
A: 500000 M⁻¹ s⁻¹

Q: What about the Kd [3] of the same binder?
A: 220 pM

Q: And the koff [3]?
A: 0.00036 s⁻¹

Q: And the kon [3]?
A: 1.7e+06 M⁻¹ s⁻¹

Q: And the Kd [4]?
A: 620 pM

Q: What about the koff [4] of the same binder?
A: 0.00031 s⁻¹

Q: What about the kon [4] of the same binder?
A: 500000 M⁻¹ s⁻¹

Q: And the IC50 [5]?
A: 2180 pM

B2: 29E11 (antibody, human IgG4, V domains shown)
VH: QVQLVQSGAEVKKPGSSVKVSCKASGYTFTSYYMIWVRQAPGQGLEWMGDINPYNGTATYAQKFQGRVTITADESTSTAYMELSSLRSEDTAVYYCAREGPYFSNLYVMDYWGQGTLVTVSS
VL: EIVLTQSPATLSLSPGERATLSCRASQSVSYDGENYLAWYQQKPGQAPRLLIYAASNRATGIPARFSGSGSGTDFTLTISSLEPEDFAVYYCQLSNEDLLTFGGGTKVEIK
notes: Library-derived clone, tested as human IgG4(S228P)/Ckappa IgG; framework residue limits counted on the grafts
Q: Does B2 bind [6]?
A: binds

Q: Does B2 bind [7]?
A: binds

B3: 30C11 (antibody, human IgG4, V domains shown)
VH: QVQLVQSGAEVKKPGSSVKVSCKASGYTFTSNYMIWVRQAPGQGLEWMGDINPYNGTATYAQKFQGRVTITADESTSTAYMELSSLRSEDTAVYYCAREDPYFSNLYVMDYWGQGTLVTVSS
VL: EIVLTQSPATLSLSPGERATLSCRASQSVSYEGDNYLNWYQQKPGQAPRLLIYAASNLETGIPARFSGSGSGTDFTLTISSLEPEDFAVYYCQLSNQDLLTFGGGTKVEIK
notes: as for B2
Q: What does the source list for B3?
A: binding result [6]: binds; binding result [7]: binds

B4: MH9 (antibody, V domains shown)
VH: QVQLVQSGAEVKKPGSSVKVSCKASGYTFSSYYIIWVRQAPGQGLEWMGDINPYNGTANYAQKFQGRVTITADESTSTAYMELSSLRSEDTAVYYCAREGPYFSNLYVMDYWGQGTLVTVSS
VL: EIVLTQSPATLSLSPGERATLSCRASQSVSYEGENYLAWYQQKPGQAPRLLIYAASNRATGIPARFSGSGSGTDFTLTISSLEPEDFAVYYCQLSNQDLLTFGGGTKVEIK
notes: Designer clone, human IgG4(S228P)/Ckappa IgG
Q: Which “EC50 (read off the curve)” value [7] does the source give for B4 here?
A: ~10000 pM

B5: MH14 (antibody, human IgG4, V domains shown)
VH: QVQLVQSGAEVKKPGSSVKVSCKASGYTFSSAYMIWVRQAPGQGLEWMGDINPYNGGANYAQKFQGRVTITADESTSTAYMELSSLRSEDTAVYYCAREGPYFSNLYVMDYWGQGTLVTVSS
VL: EIVLTQSPATLSLSPGERATLSCRASQSVSYEGENYLNWYQQKPGQAPRSAIYAASNRATGIPARFSGSGSGTDFTLTISSPEPEDFAVYYCQLSNEDLLTFGGGTKVEIK
notes: Deimmunized MH5 derivative, human IgG4(S228P)/Ckappa IgG
Q: What does the source list for B5?
A: binding result (human insulin): no binding; binding result [8]: binds; binding result [9]: binds

B6: MH22 (antibody, human IgG4, V domains shown)
VH: QVQLVQSGAEVKKPGSSVKVSCKASGYTFSSHYMIWVRQAPGQGLEWMGDINPYNGGANYAQKFQGRVTITADESTSTAYMELSSLRSEDTAVYYCAREGPYFSNLYVMDYWGQGTLVTVSS
VL: EIVLTQSPATLSLSPGERATLSCRASQSVSYEGENYLNWYQQKPGQAPRSAIYAASNRATGIPARFSGSGSGTDFTLTISSPEPEDFAVYYCQLSNEDLLTFGGGTKVEIK
notes: as for B5
Q: Does B6 bind (human insulin)?
A: no binding

Q: Does B6 bind [8]?
A: binds

Q: Does B6 bind [9]?
A: binds

B7: MH23 (antibody, human IgG4, V domains shown)
VH: QVQLVQSGAEVKKPGSSVKVSCKASGYTFSSHYMIWVRQAPGQGLEWMGDINPYNGGANYAQKFQGRVTITADESTSTAYMELSSLRSEDTAVYYCAREGPYFSNLYVMDYWGQGTLVTVSS
VL: EIVLTQSPATLSLSPGERATLSCRASQSVSYEGENYLNWYQQKPGQAPRAAIYAASNRATGIPARFSGSGSGTDFTLTISSPEPEDFAVYYCQLSNEDLLTFGGGTKVEIK
notes: as for B5
Q: Does B7 bind (human insulin)?
A: no binding

Q: Does B7 bind [8]?
A: binds

Q: Does B7 bind [9]?
A: binds

B8: MH31 (antibody, human IgG4, V domains shown)
VH: QVQLVQSGAEVKKPGSSVKVSCKASGYTFSSAYMIWVRQAPGQGLEWMGDINPYNGGANYAQKFQGRVTITADESTSTAYMELSSLRSEDTAVYYCAREGPYFSNLYVMDYWGRGTLVTVSS
VL: EIVLTQSPATLSLSPGERATLSCRASQSVSYEGENYLNWYQQKPGQAPRAAIYAASNRATGIPARFSGSGSGTDFTLTISSPEPEDFAVYYCQLSNEDLLTFGGGTKVEIK
notes: as for B5
Q: Does B8 bind (human insulin)?
A: no binding

Q: Does B8 bind [8]?
A: binds

Q: Does B8 bind [9]?
A: binds

B9: MH38 (antibody, human IgG4, V domains shown)
VH: QVQLVQSGAEVKKPGSSVKVSCKASGYTFSSHYMIWVRQAPGQGLEWMGDINPYNGGANYAQKFQGRVTITADESTSTAYMELSSLRSEDTAVYYCAREGPYFSNLYVMDYWGRGTLVTVSS
VL: EIVLTQSPATLSLSPGERATLSCRASQSVSYEGENYLNWYQQKPGQAPRSAIYAASNRATGIPARFSGSGSGTDFTLTISSPEPEDFAVYYCQLSNEDLLTFGGGTKVEIK
notes: as for B5
Q: Does B9 bind [8]?
A: binds

Q: Does B9 bind [9]?
A: binds
